Values belong to the molecule of their own block, whether it stands above or below them.
What was measured:
[1] = target: NKG2D receptor on NK cells (UniProt P26718); assay: cell-based or functional assay
[2] = target: T1, recombinant NKG2D-Fc chimeric protein (UniProt P26718 78-216); assay: NKG2D-Fc staining of COS transfectants, facs and cellular immunofluorescence
T1 construct: Bought from R&D Systems; also called NKG2D-Fc protein; recombinant NKG2D-Fc chimera protein; not shown: Fc part
T1 sequence (looked up): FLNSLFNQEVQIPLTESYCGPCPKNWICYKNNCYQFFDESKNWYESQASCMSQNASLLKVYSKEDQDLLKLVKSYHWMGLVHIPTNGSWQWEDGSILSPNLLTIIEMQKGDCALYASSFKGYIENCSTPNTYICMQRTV
Experimental: FIG. 10. A). MICA-B2 is a novel ligand for the NKG2D receptor. COS cells were transfected with cDNA for WT MICA or MICA isoforms. Forty-eight hours post-transfection cells welle incubated with recombinant NKG2D-Fc chimeric protein. […] Staining was analyzed by fluorescent microscopy and positive signal was converted into black and white picture, positive cells intercating with NKG2D-Fc are shown in black. COS cells transfected with the WT cDNA for MICA are used as positive controls. B) Visualisation of NKG2D binding on MICA-B2 isoform expression analyzed by confocal microscopy on COS-7 transfected cells using a recombinant NKG2D-Fc protein. Transfected cells were detected using an anti-Flag (M2) monoclonal antibody. NKG2D-Fc binding and Flag intracellular detection were achieved 48 h post-transfection before and after cell fixation and permeabilization, respectively. COS cells transfected with the WT cDNA for MICA are used as positive controls. Immunofluorescence staining was obtained using an FITC-labeled secondary antibody and shown in black and white, specific staining appears in white.
To functionally assess a role for the MICA isoforms in immune regulation, the possible interaction of MICA isoforms with NKG2D receptor, the natural receptor of full length MICA, was investigated by facs and by cellular immunofluorescence. […]

NKG2D expression on NK (NKL) cells after overnight incubation with soluble protein, flow cytometry [1]: 47.5%
Molecule: soluble recombinant isoform MICA-B2 (from UniProt Q29983 24-307) (ligand)

binding result [2]: no binding
B1: MICA-B1 isoform expressed in transfected cells (ligand)
chain: EPHSLRYNLTVLSGDGSVQSGFLAEVHLDGQPFLRCDRQKCRAKPQGQWAEDVLGNKTWDRETRDLTGNGKDLRMTLAHIKDQKEVLQSSDLGHERQEFLEGRCHEDQDTLSRYACRLPAGTTAISKIRRSPEENSAPHGECHPQRGLEGQHYRDMQGFWLLSLEYHTELASGWGKVLVLQSHWQTFHVSAVAAAAAAAAAIFVIIIFYVCCCKKKTSAAEGPELVSLQVLDQHPVGTSDHRDATQLGFQPLMSDLGSTGSTEGA
notes: Alpha1 domain, novel polypeptide region, TM and CYT; also called isoform B1; not shown: C-terminal FLAG tag (three copies of FLAG in 3' from the pCMV-3Tag vector)

binding result [2]: no binding
B2: MICA-D isoform expressed on transfected cells (ligand)
chain: EPHSLRYNLTVLSGDGSVQSGFLAEVHLDGQPFLRCDRQKCRAKPQGQWAEDVLGNKTWDRETRDLTGNGKDLRMTLAHIKDQKEGKVLVLQSHWQTFHVSAVAAAAAAAAAIFVIIIFYVCCCKKKTSAAEGPELVSLQVLDQHPVGTSDHRDATQLGFQPLMSDLGSTGSTEGA
notes: also called isoform D; not shown: C-terminal FLAG tag (three copies of FLAG in 3' from the pCMV-3Tag vector)

Source: US20160176943A1 (INSERM INSITITUT NATIONAL DE LA SANTE ET DE LA RECHERCHE …, published 2016)
